Data taken from US20240270866A1 (Alector, published 2024).
Where a chain is given by its changes, count along the chain named.

B1: SA-37 (antibody, V domains shown)
VH: QVQLQESGPGLVKPSQTLSLTCTVSGGSISSGGYYWSWIRQHPGKGLEWIGSIYYSGSTYYNPSLKSRVTISVDTSKNQFSLKLSSVTAADTAVYYCAREGAYSLYVNWFDPWGQGTLVTVSS
VL: EIVLTQSPGTLSLSPGERATLSCRASQSVSSSFLAWYQQKPGQAPRLLIYGASSRATGIPDRFSGSGSGTDFTLTISRLEPEDFAVYYCQQYDGVPITFGGGTKVEIK
notes: IgG
B2: SA-38 (antibody, V domains shown)
VH: B1 VH
VL: EIVMTQSPATLSVSPGERATLSCRASQSVSSSLAWYQQKPGQAPRLLIFGASTRATGIPARFSGSGSGTEFTLTISSLQSEDFAVYYCQQYDNYPPITFGGGTKVEIK
notes: IgG
B3: SA-39 (antibody, V domains shown)
VH: QVQLVQSGAEVKKPGASVKVSCKASGYTFTSYYMVWVRQAPGQGLEWMGIINPSGGSTSYAQKFQGRVTMTRDTSTSTVYMELSSLRSEDTAVYYCAREGGYGYRAYPYGMDVWGQGTTVTVSS
VL: DIQMTQSPSSLSASVGDRVTITCQASQDISNSLNWYQQKPGKAPKLLIYDASNLETGVPSRFSGSRSGTDFTFTISSLQPEDIATYYCQQVIILPLTFGGGTKVEIK
notes: IgG
B4: SA-43 (antibody, V domains shown)
VH: QLQLQESGPGLVKPSETLSLTCTVSGGSISSSSYAWGWIRQPPGKGLEWIGSIYYSGSTYYNPSLKSRVTISVDTSKNQFSLKLSSVTAADTAVYYCARELETSRHDIWGQGTTVTVSS
VL: DIQMTQSPSSVSASVGDRVTITCRASQGISSWLAWYQQKPGKAPKLLIYAASSLQSGVPSRFSGSGSGTDFTLTISSLQPEDFATYYCQQASAFPITFGGGTKVEIK
notes: IgG
B5: SA-47 (antibody, V domains shown)
VH: B3 VH with V35H, G100V, Y102V, G103S, Y104G, R105W, A106E, Y107I, P108T
VL: B4 VL with A91I, A93S, F94Y
notes: IgG
B6: SA-58 (antibody, V domains shown)
VH: QLQLQESGPGLVKPSETLSLTCTVSGGSISSSSYAWGWIRQPPGKGLEWIGSIYYSGSTYYNPSLKSRVTISVDTSKNQFSLKLSSVTAADTAVYYCARLPMGCGSGMDVWGQGTTVTVSS
VL: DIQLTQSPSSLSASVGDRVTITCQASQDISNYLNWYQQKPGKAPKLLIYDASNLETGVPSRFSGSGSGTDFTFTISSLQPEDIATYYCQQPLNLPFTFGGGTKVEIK
notes: IgG
B7: SA-59 (antibody, V domains shown)
VH: QVQLQESGPGLVKPSETLSLTCTVSGGSISSYYWSWIRQPPGKGLEWIGSIYYSGSTNYNPSLKSRVTISVDTSKNQFSLKLSSVTAADTAVYYCARSGGSYSYLDVWGQGTMVTVSS
VL: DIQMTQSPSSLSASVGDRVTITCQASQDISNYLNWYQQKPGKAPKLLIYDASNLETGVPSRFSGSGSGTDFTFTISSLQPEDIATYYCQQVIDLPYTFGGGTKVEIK
notes: IgG

Each binder was assayed against T1, mouse SIRPA overexpressed on CHO cells (mouse, UniProt P97797 32-513) (assay: flow, CHO-muSIRPA;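 for relative MFI: antibody binding measured by flow cytometry: cells stained with 1 ug/ml test antibody for 1 h on ice, detected with PE-labelled secondary antibody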).
T1 construct: also called CHO-muSIRPA
T1 sequence: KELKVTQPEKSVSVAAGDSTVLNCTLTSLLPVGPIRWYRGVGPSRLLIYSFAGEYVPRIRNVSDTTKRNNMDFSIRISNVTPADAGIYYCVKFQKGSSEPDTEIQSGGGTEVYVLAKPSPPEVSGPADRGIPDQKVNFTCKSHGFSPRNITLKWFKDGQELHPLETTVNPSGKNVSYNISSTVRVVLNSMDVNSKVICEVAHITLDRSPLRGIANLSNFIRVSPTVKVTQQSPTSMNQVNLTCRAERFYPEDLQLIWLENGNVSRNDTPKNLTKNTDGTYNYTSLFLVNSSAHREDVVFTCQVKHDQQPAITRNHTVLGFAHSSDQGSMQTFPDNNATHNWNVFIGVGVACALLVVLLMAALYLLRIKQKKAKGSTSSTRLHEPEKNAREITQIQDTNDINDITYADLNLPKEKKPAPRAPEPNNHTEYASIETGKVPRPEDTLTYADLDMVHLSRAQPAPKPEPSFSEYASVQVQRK

| Binder | binding result |
| --- | --- |
| B1 | no binding (tested: 1 ug/ml) |
| B2 | no binding (tested: 1 ug/ml) |
| B3 | no binding (tested: 1 ug/ml) |
| B4 | no binding (tested: 1 ug/ml) |
| B5 | no binding (tested: 1 ug/ml) |
| B6 | no binding (tested: 1 ug/ml) |
| B7 | no binding (tested: 1 ug/ml) |

Each binder was assayed against T2, Human SIRPA D1 Fc (human, UniProt P78324 32-137) (assay: ForteBio IgG avid;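 note: antibody IgG captured on AHQ biosensors, then 100 nM Fc-fused SIRP antigen applied for 3 min, followed by 3 min buffer dissociation, kinetics fitted to a 1:1 model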).
T2 construct: not shown: human IgG1 Fc

| Binder | Kd |
| --- | --- |
| B1 | 10.2 nM |
| B2 | 3.81 nM |
| B3 | 3.62 nM |
| B4 | 10.5 nM |
| B5 | 15.4 nM |
| B6 | 4.31 nM |
| B7 | 23.6 nM |

Each binder was assayed against T3, Mouse SIRPA D1 Fc (mouse, UniProt P97797 32-150, limits assumed) (assay: ForteBio IgG avid;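 note: antibody IgG captured on AHQ biosensors, then 100 nM Fc-fused SIRP antigen applied for 3 min, followed by 3 min buffer dissociation, kinetics fitted to a 1:1 model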).
T3 sequence: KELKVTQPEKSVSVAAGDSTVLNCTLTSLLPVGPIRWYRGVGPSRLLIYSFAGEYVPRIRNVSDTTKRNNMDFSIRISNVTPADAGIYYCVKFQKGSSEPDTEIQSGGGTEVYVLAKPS

| Binder | binding result |
| --- | --- |
| B1 | no binding (tested: 100 nM) |
| B2 | no binding (tested: 100 nM) |
| B3 | no binding (tested: 100 nM) |
| B4 | no binding (tested: 100 nM) |
| B5 | no binding (tested: 100 nM) |
| B6 | no binding (tested: 100 nM) |
| B7 | no binding (tested: 100 nM) |

Each binder was assayed against Human SIRPb D1 Fc (human, UniProt O00241 30-148, limits assumed) (assay: ForteBio IgG avid;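 note: antibody IgG captured on AHQ biosensors, then 100 nM Fc-fused SIRP antigen applied for 3 min, followed by 3 min buffer dissociation, kinetics fitted to a 1:1 model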).
Human SIRPb D1 Fc, sequence (O00241 30-148 limits assumed): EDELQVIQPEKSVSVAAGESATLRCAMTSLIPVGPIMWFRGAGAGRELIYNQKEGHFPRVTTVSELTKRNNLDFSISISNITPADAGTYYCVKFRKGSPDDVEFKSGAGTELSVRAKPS

| Binder | binding result | Kd |
| --- | --- | --- |
| B1 | no binding (tested: 100 nM) |  |
| B2 | no binding (tested: 100 nM) |  |
| B3 |  | 22.3 nM |
| B4 | no binding (tested: 100 nM) |  |
| B5 | no binding (tested: 100 nM) |  |
| B6 | no binding (tested: 100 nM) |  |
| B7 | no binding (tested: 100 nM) |  |

The binders below were run against T4, human SIRPA overexpressed on CHO cells (human, UniProt P78324 31-504) (assay: flow, CHO-huSIRPA;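 note: Anti-SIRPA antibodies applied at 1 µg/mL for 1 h on ice, binding read by flow cytometry using a PE-labelled secondary antibody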).
T4 construct: also called CHO-huSIRPA
Experimental: (§1) Initial characterization of anti-SIRPA antibodies of the present disclosure involved determining their ability to bind cell lines overexpressing human or mouse SIRPA. Cells were harvested, plated at 10⁶/ml in a 96 well plate, washed, and incubated in 100 ul PBS containing 1 ug/ml Mab for 1 hour in ice. Cells were then washed twice and incubated in 100 ul PBS containing 5 ug/ml PE-conjugated secondary antibody for 30 minutes in ice. Cells were washed twice in cold PBS and acquired on a BD FACS Canto. Data analysis and calculation of mean fluorescence intensity (MFI) values or % positive cells was performed with FlowJo® (TreeStar) software version 10.0.7.

| Binder | relative MFI |
| --- | --- |
| B1 | 1.27 fold over background |
| B2 | 2.96 fold over background |
| B3 | 1.47 fold over background |
| B4 | 0.56 fold over background |
| B5 | 11.3 fold over background |
| B6 | 50.8 fold over background |
| B7 | 0.63 fold over background |

Target: T1, mouse SIRPA overexpressed on CHO cells
Assay: flow, CHO-muSIRPA
Remark: another data set of the same source
Experimental: as §1

| Binder | relative MFI |
| --- | --- |
| B1 | 0.464 fold over background |
| B2 | 0.458 fold over background |
| B3 | 0.571 fold over background |
| B4 | 0.479 fold over background |
| B5 | 0.479 fold over background |
| B6 | 0.738 fold over background |
| B7 | 0.53 fold over background |
